Measurements published in patent US20130096072A1 (Genentech, published 2013).
Bridges are numbered along the chain shown (N, C = ends). Where no end group is shown, it is not given here.

Tests used:
[1] = biological target: scHGF (non-cleavable form of full-length pro-HGF with a mutated cleavage site) (human, UniProt P14210 32-728); test: cell-based or functional assay
[2] = biological target: T1, scHGF β-chain (zymogen-like HGF β, residues Asn479 to Ser728, R494E, C-terminal His-tag) (human, UniProt P14210 479-728); test: BLI (OctetRed) scHGF β activation/Met binding assay: peptide titrated into 0.5 µM scHGF β over biotinylated Met Sema/PSI on streptavidin tips; steady-state single-site fit
T1 construct: Expressed in insect cells; also called zHGF β; zymogen-like form of HGF β; not shown: C-terminal His-tag
Experimental: (§1) Met binding assays were carried out utilizing the OctetRed™ biolayer interferometry instrument (ForteBio, Inc.) as reported previously (Landgraf, K. E. et al. (2010) J Biol Chem 285: 40362-72). Biotinylated Met ECD (Sema/PSI-AviTag) was captured on the surface of streptavidin optical sensor tips (SA biosensors, ForteBio, Inc.), and transferred into buffer containing 0.5 μM scHGF β-chain variants in the presence of increasing concentration of indicated peptides. Association and dissociation reactions were monitored to ensure reversible binding between scHGF β and Met. Binding was quantified using the steady-state levels of surface response from the association reaction. Equilibrium constants were derived by least squares fitting of the titration data to a single-site binding equation. Errors reported are ±stdev of n=3 independent experiments.
Based on the finding that the consensus ZAPs contain features consistent with binding and inserting into the activation pocket, several related peptides were synthesized and utilized in a previously established scHGF β activation assay to assess their affinities and ability to active Met binding (Landgraf, K. E. et al. (2010) J Biol Chem 285: 40362-72). Since scHGF β can only weakly interact with the Met Sema-PSI domain compared to the active HGF β form, biolayer interferometry was used in the activation assay to measure the ability of a peptide to directly enhance the binding affinity of scHGF β to a streptavidin sensor surface coated with biotinylated Met (Landgraf, K. E. et al. (2010) J Biol Chem 285: 40362-72). Thus, titration of an activator peptide should result in a significant increase in the surface response signal due to enhanced scHGF β binding to Met.

[3] = biological target: T1, scHGF β-chain (zymogen-like HGF β, …); test: BLI scHGF β activation/Met binding assay
[4] = biological target: T1, scHGF β-chain (zymogen-like HGF β, …); test: BLI, peptide-dependent activation of zHGF β binding to surface immobilized Met ECD
Experimental: as §1

[5] = biological target: T1, scHGF β-chain (zymogen-like HGF β, …); test: activity-based phage sorting: library with 0.5 µM scHGF β in solution, complex captured on a Met Sema-PSI coated plate; the clones as a group are plotted in FIG. 9B
Experimental: Where activity-based sorting was conducted, the phage library was incubated in solution with 0.5 μM scHGF β at 4° C. then the mixture was applied to a Maxi-Sorp plate coated with 5 μg/ml Met Sema-PSI ECD protein for capture of activated complex. To analyze phage clones from the activity-based sorting two ELISAs were carried out separately to analyze binding and activity. The first ELISA measured direct phage binding to wells coated with 5 μg/ml scHGF β relative to a BSA control. The second activity ELISA measured phage binding to wells coated with 5 μg/ml Met in the presence or absence (negative control) of 0.5 μM scHGF β in solution. The data from these two ELISAs were plotted with direct binding on the y-axis and Met capture (activity) on the x-axis.
The new 15-mer ZAP-gene VIII phage library contained two main regions that were preferentially shielded from hard-randomization, the N-terminal motif which inserted into the activation pocket and a portion of the reverse turn motif that packs against the protein surface in the bound state (FIG. 8A). […] Phage clones from the solution sort and activity-based sort were sequenced and subjected to a 2-dimensional ELISA analysis, where the clones were analyzed for (i) direct scHGF β binding and (ii) the ability of phage clones to be captured by Met only in the presence of scHGF β.

T1 sequence (P14210 479-728 R494E): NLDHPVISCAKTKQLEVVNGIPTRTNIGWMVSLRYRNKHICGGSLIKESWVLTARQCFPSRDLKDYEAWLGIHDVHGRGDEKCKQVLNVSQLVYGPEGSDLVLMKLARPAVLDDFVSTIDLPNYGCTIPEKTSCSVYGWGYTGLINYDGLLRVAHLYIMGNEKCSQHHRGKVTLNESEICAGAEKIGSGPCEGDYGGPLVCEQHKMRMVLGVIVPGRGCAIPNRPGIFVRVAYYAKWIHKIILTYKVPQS
Chain of scHGF (non-cleavable form of full-length pro-HGF with a mutated cleavage site) (P14210 32-728 limits assumed, stated change not applied): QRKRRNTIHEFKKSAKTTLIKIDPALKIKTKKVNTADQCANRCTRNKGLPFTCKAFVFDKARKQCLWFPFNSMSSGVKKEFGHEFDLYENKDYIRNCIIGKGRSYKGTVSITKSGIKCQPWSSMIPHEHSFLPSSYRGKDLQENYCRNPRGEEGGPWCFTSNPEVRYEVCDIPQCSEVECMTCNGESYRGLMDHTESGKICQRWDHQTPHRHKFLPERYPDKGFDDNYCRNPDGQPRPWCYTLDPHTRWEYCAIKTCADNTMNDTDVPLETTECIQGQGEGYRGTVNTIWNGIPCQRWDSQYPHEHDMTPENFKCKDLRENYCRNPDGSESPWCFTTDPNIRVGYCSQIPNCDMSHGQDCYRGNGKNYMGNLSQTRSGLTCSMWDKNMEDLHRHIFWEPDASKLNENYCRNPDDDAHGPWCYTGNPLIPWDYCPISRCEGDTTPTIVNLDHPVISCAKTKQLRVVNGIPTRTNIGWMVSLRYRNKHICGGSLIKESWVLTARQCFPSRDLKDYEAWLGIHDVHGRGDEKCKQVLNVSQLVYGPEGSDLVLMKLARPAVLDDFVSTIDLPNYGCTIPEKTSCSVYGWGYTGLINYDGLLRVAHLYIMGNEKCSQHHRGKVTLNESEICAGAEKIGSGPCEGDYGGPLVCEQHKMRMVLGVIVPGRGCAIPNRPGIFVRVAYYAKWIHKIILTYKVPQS

Row | Kd [2] [µM] | fold more potent than the peptides derived from the native N-terminus of the β-chain of HGF [3] [fold] | fold improvement over previous activators [4] [fold] | binding result [5] | Binder | EC50, BxPC-3 cell survival assay, peptide titrated with scHGF [1] [µM]
1 | 34 | ~60 | > 90 | – | IVGGYPWWMDV-NH2 (Synthetic peptide; also called possibly ZAP.14) [IVGG.14 peptide] | ~20
2 | – | – | – | binds | IIGGCPYWMDREECI (disulfide 5-14) [ZAP.03] | –
